From patent publication US6140490
pKd: −log10 of the molar value.

Target: Complement C1q (Homo sapiens) (UniProt P02745+P02746+P02747)
Assay: filter
Settings: 2'-NH2 C and U; MgPBS, 37 C; starting pool

Complement C1q (Homo sapiens), sequence (P02745 23-245, chain 1 of 3): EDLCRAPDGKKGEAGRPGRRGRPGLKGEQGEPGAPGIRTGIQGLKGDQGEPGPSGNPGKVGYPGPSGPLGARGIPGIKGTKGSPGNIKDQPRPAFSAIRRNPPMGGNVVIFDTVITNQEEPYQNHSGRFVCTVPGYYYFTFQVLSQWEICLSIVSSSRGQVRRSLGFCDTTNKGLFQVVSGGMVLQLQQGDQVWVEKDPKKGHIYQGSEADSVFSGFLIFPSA
Complement C1q (Homo sapiens), sequence (P02746 28-253, chain 2 of 3): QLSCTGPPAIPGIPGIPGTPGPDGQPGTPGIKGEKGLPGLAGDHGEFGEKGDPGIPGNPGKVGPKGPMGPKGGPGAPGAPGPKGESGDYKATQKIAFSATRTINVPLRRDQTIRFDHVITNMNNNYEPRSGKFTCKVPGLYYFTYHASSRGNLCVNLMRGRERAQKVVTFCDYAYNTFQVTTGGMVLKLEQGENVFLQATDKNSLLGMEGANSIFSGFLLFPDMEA
Complement C1q (Homo sapiens), sequence (P02747 29-245, chain 3 of 3): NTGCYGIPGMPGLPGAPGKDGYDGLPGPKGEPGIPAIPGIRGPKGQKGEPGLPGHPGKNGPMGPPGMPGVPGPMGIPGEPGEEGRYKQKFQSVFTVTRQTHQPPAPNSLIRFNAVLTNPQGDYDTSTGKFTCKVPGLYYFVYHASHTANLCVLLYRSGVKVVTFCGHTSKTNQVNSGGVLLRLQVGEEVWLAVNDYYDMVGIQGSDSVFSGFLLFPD

GGGAGGACGAUGCGGNNNNNNNNNNNNNNNNNNNNNNNNNNNNNNNNNNNNNNNNNNNNNNNNNNCAGACGACUCGCCCGA [random 50N7 2'-NH2 RNA pool]
pKd: 5.64
